7 molecules from patent US20240043537A1 can be followed below.

Substitutions are numbered along the chain they refer to.

Broadly, the Kd is the concentration at which binding is half-saturated. A low value points to a tighter complex. A word on the koff: it is the first-order rate constant of dissociation. Read a low koff as a long-lived complex. What is called kon is the second-order rate constant of association. A low value points to slow association.

The target of one test is CD3 on T-cells (UniProt P07766). The test is described as follows: cell-based or functional assay.
Chain of CD3 on T-cells (P07766 23-207): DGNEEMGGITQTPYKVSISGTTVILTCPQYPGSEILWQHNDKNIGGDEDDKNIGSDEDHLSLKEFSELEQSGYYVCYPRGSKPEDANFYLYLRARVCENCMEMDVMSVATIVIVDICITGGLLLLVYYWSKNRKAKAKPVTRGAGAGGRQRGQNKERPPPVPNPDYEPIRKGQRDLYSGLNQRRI
Test [1] addresses CD3 (as used for the BIACORE kinetics of Table 11) (UniProt P07766). The test is described as follows: SPR (BIACORE). In general terms: Surface plasmon resonance follows binding to a sensor surface in real time, without labels.

Chain of CD3 (as used for the BIACORE kinetics of Table 11) (P07766 23-126): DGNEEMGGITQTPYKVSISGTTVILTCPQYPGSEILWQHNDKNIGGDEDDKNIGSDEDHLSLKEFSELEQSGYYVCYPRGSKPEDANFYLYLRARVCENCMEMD

B1: DART-A-M7 (bispecific antibody)
chain 1: DFVMTQSPDSLAVSLGERVTMSCKSSQSLLNSGNQKNYLTWYQQKPGQPPKLLIYWASTRESGVPDRFSGSGSGTDFTLTISSLQAEDVAVYYCQNDYSYPYTFGQGTKLEIKGGGSGGGGEVQLVESGGGLVQPGGSLRLSCAASGFTFSTYAMNWVRQAPGKGLEWVGRIRSKYNNYATYYADSVKDRFTISRDDSKNSLYLQMNSLKTEDTAVYYCVRHDNFGNSYVSWFAYWGQGTLVTVSSGGCGGGKVAALKEKVAALKEKVAALKEKVAALKE
chain 2: QAVVTQEPSLTVSPGGTVTLTCRSSTGAVTTSNYANWVQQKPGQAPRGLIGGTNKRAPWTPARFSGSLLGGKAALTITGAQAEDEADYYCALWYSNLWVFGGGTKLTVLGGGGSGGGGEVQLVQSGAELKKPGASVKVSCKASGYTFTDYYMKWVRQAPGQGLEWIGDIIPSNGATFYNQKFKGRVTITVDKSTSTAYMELSSLRSEDTAVYYCARSHLLRASWFAYWGQGTLVTVSSGGCGGGEVAALEKEVAALEKEVAALEKEVAALEK
As to B1, in the test with CD3 on T-cells, the EC50 of cytolysis at 18 hours (CTL assay, Pan-T-cells and MOLM-13, E:T = 5:1) was 0.304 ng/mL; the EC50 of cytolysis at 42 hours (CTL assay, Pan-T-cells and MOLM-13, E:T = 5:1) was found to be 0.03 ng/mL; the R: ratio of 18 hour EC50 to DART-A-WT (CTL assay, Pan-T-cells and MOLM-13, E:T = 5:1) was found to be 3.8; the R: ratio of 42 hour EC50 to DART-A-WT (CTL assay, Pan-T-cells and MOLM-13, E:T = 5:1) was 10.8. For the same molecule, in the test with CD3 on T-cells, the max % CytoTox at 18 hours (CTL assay, Pan-T-cells and MOLM-13, E:T = 5:1) came out at 41.4%; the max % CytoTox at 42 hours (CTL assay, Pan-T-cells and MOLM-13, E:T = 5:1) is 32.5%. Besides, in test [1], the Kd turned out to be 22.5 nM, the R (KD ratio to DART-A-WT) stood at 2.8, the R (ka ratio to DART-A-WT) came to 2 and the R (kd ratio to DART-A-WT) was 5.6. In addition, in test [1], the koff turned out to be 0.0229 s⁻¹ and the kon is 1.02e+06 M⁻¹ s⁻¹.

B2: DART-A-M19 (bispecific antibody)
chain 1: B1 chain 1 with D223K, F225I
chain 2: B1 chain 2
Turning to B2, in the test with CD3 on T-cells, the EC50 of cytolysis at 18 hours (CTL assay, Pan-T-cells and MOLM-13, E:T = 5:1) came to 0.68 ng/mL; the EC50 of cytolysis at 42 hours (CTL assay, Pan-T-cells and MOLM-13, E:T = 5:1) was 0.11 ng/mL; the R: ratio of 18 hour EC50 to DART-A-WT (CTL assay, Pan-T-cells and MOLM-13, E:T = 5:1) turned out to be 8.6; the R: ratio of 42 hour EC50 to DART-A-WT (CTL assay, Pan-T-cells and MOLM-13, E:T = 5:1) was 39.1. Moreover, in the test with CD3 on T-cells, the max % CytoTox at 18 hours (CTL assay, Pan-T-cells and MOLM-13, E:T = 5:1) amounted to 41%; the max % CytoTox at 42 hours (CTL assay, Pan-T-cells and MOLM-13, E:T = 5:1) was 32.8%. For the same molecule, in test [1], the Kd came to 54.6 nM, the R (KD ratio to DART-A-WT) is 6.7, the R (ka ratio to DART-A-WT) is 1.5 and the R (kd ratio to DART-A-WT) came out at 10. In test [1], this molecule showed a koff of 0.0411 s⁻¹ and a kon of 753000 M⁻¹ s⁻¹.

B3: DART-A-M17 (bispecific antibody)
chain 1: B1 chain 1 with Y153T, D223G
chain 2: B1 chain 2
For the molecule B3, in the test with CD3 on T-cells, the EC50 of cytolysis at 18 hours (CTL assay, Pan-T-cells and MOLM-13, E:T = 5:1) was found to be 1.28 ng/mL; the EC50 of cytolysis at 42 hours (CTL assay, Pan-T-cells and MOLM-13, E:T = 5:1) is 0.126 ng/mL; the R: ratio of 18 hour EC50 to DART-A-WT (CTL assay, Pan-T-cells and MOLM-13, E:T = 5:1) came out at 16.2; the R: ratio of 42 hour EC50 to DART-A-WT (CTL assay, Pan-T-cells and MOLM-13, E:T = 5:1) amounted to 44.9. Further, in the test with CD3 on T-cells, the max % CytoTox at 18 hours (CTL assay, Pan-T-cells and MOLM-13, E:T = 5:1) was 44.2%; the max % CytoTox at 42 hours (CTL assay, Pan-T-cells and MOLM-13, E:T = 5:1) was determined as 30.7%. In addition, in test [1], the Kd turned out to be 57.2 nM, the R (KD ratio to DART-A-WT) was determined as 7, the R (ka ratio to DART-A-WT) amounted to 1.7 and the R (kd ratio to DART-A-WT) is 12. In test [1], this molecule showed a koff of 0.0478 s⁻¹ and a kon of 837000 M⁻¹ s⁻¹.

B4: DART-A-M12 (bispecific antibody)
chain 1: B1 chain 1 with D223G, W232Y
chain 2: B1 chain 2
For B4, in the test with CD3 on T-cells, the EC50 of cytolysis at 18 hours (CTL assay, Pan-T-cells and MOLM-13, E:T = 5:1) was 0.372 ng/mL; the EC50 of cytolysis at 42 hours (CTL assay, Pan-T-cells and MOLM-13, E:T = 5:1) is 0.067 ng/mL; the R: ratio of 18 hour EC50 to DART-A-WT (CTL assay, Pan-T-cells and MOLM-13, E:T = 5:1) is 4.7; the R: ratio of 42 hour EC50 to DART-A-WT (CTL assay, Pan-T-cells and MOLM-13, E:T = 5:1) was found to be 24. In the test with CD3 on T-cells, this molecule had a max % CytoTox at 18 hours (CTL assay, Pan-T-cells and MOLM-13, E:T = 5:1) of 49.7%; a max % CytoTox at 42 hours (CTL assay, Pan-T-cells and MOLM-13, E:T = 5:1) of 31.5%. Further, in test [1], the Kd came to 12.8 nM, the R (KD ratio to DART-A-WT) came to 1.6, the R (ka ratio to DART-A-WT) came out at 1.7 and the R (kd ratio to DART-A-WT) was found to be 2.7. Also, in test [1], the koff is 0.0111 s⁻¹ and the kon was 866000 M⁻¹ s⁻¹.

B5: DART-A-M13 (bispecific antibody)
chain 1: B1 chain 1 with D223G, Y235E
chain 2: B1 chain 2
As for B5, in the test with CD3 on T-cells, the EC50 of cytolysis at 18 hours (CTL assay, Pan-T-cells and MOLM-13, E:T = 5:1) was 1.22 ng/mL; the EC50 of cytolysis at 42 hours (CTL assay, Pan-T-cells and MOLM-13, E:T = 5:1) came to 0.203 ng/mL; the R: ratio of 18 hour EC50 to DART-A-WT (CTL assay, Pan-T-cells and MOLM-13, E:T = 5:1) was found to be 15.5; the R: ratio of 42 hour EC50 to DART-A-WT (CTL assay, Pan-T-cells and MOLM-13, E:T = 5:1) turned out to be 72.3. In the test with CD3 on T-cells, this molecule gave a max % CytoTox at 18 hours (CTL assay, Pan-T-cells and MOLM-13, E:T = 5:1) of 45.1%; a max % CytoTox at 42 hours (CTL assay, Pan-T-cells and MOLM-13, E:T = 5:1) of 31.5%. Further, in test [1], the Kd is 68.6 nM, the R (KD ratio to DART-A-WT) amounted to 8.4, the R (ka ratio to DART-A-WT) is 0.6 and the R (kd ratio to DART-A-WT) was determined as 5.4. Further, in test [1], the koff is 0.022 s⁻¹ and the kon came out at 321000 M⁻¹ s⁻¹.

B6: DART-A-M15 (bispecific antibody)
chain 1: B1 chain 1 with T152E, D223G
chain 2: B1 chain 2
For the molecule B6, in the test with CD3 on T-cells, the EC50 of cytolysis at 18 hours (CTL assay, Pan-T-cells and MOLM-13, E:T = 5:1) was determined as 4.16 ng/mL; the EC50 of cytolysis at 42 hours (CTL assay, Pan-T-cells and MOLM-13, E:T = 5:1) was determined as 0.975 ng/mL; the R: ratio of 18 hour EC50 to DART-A-WT (CTL assay, Pan-T-cells and MOLM-13, E:T = 5:1) was 52.7; the R: ratio of 42 hour EC50 to DART-A-WT (CTL assay, Pan-T-cells and MOLM-13, E:T = 5:1) was found to be 347. In the test with CD3 on T-cells, the max % CytoTox at 18 hours (CTL assay, Pan-T-cells and MOLM-13, E:T = 5:1) turned out to be 42.7%; the max % CytoTox at 42 hours (CTL assay, Pan-T-cells and MOLM-13, E:T = 5:1) is 32%. Further, in test [1], the Kd worked out at 107 nM, the R (KD ratio to DART-A-WT) was 13, the R (ka ratio to DART-A-WT) was found to be 0.7 and the R (kd ratio to DART-A-WT) is 9.2. In test [1], this molecule registered a koff of 0.0375 s⁻¹ and a kon of 352000 M⁻¹ s⁻¹.

B7: DART-A-M18 (bispecific antibody)
chain 1: B1 chain 1 with A154G, D223G
chain 2: B1 chain 2
As to B7, in the test with CD3 on T-cells, the EC50 of cytolysis at 18 hours (CTL assay, Pan-T-cells and MOLM-13, E:T = 5:1) was 4.69 ng/mL; the EC50 of cytolysis at 42 hours (CTL assay, Pan-T-cells and MOLM-13, E:T = 5:1) came to 0.91 ng/mL; the R: ratio of 18 hour EC50 to DART-A-WT (CTL assay, Pan-T-cells and MOLM-13, E:T = 5:1) was 59.3; the R: ratio of 42 hour EC50 to DART-A-WT (CTL assay, Pan-T-cells and MOLM-13, E:T = 5:1) amounted to 324. For the same molecule, in the test with CD3 on T-cells, the max % CytoTox at 18 hours (CTL assay, Pan-T-cells and MOLM-13, E:T = 5:1) worked out at 41.3%; the max % CytoTox at 42 hours (CTL assay, Pan-T-cells and MOLM-13, E:T = 5:1) is 30.6%. In test [1], the Kd is 205 nM, the R (KD ratio to DART-A-WT) was 25, the R (ka ratio to DART-A-WT) worked out at 0.6 and the R (kd ratio to DART-A-WT) was 14. In addition, in test [1], the koff turned out to be 0.0588 s⁻¹ and the kon was found to be 287000 M⁻¹ s⁻¹.
